Data reported in patent US20100129344A1, “MEDICAL USES AND THERAPIES BASED UPON THE ACTION OF AZUROCIDIN ON IGFBP-1” (priority 2005, published 2010).
Marks after values point to notes of the source that are not given here.

Key:
IGF-II = IGF-II (Homo sapiens, UniProt P01344); assay: BIAcore analysis over IGF-II biosensor surface; type: binding; design: IGF-I, IGF-II and des(1-3)IGF-I were immobilized on the sensor chip by amine coupling; conditions: for kd (rate of dissociation, over 261-360 s) / ks (rate of association, over 21-120 s): mean ± SEM
IGF-II, sequence (P01344 25-91 limits assumed): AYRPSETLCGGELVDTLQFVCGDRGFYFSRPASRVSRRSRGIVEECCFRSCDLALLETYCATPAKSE
Method: (§1) Recombinant pIGFBP-1 was analyzed across IGF-I (A, C) and IGF-II (B, D) biosensor surfaces. A concentration range of 50, 100, 200, 400 nM was analyzed at a flow rate of 10 μl/min. A,B: Mean sensorgrams for 400 nM IGFBP-1 (intact, n=3) and 200 nM IGFBP-1, intact (0 h, n=4) and after 2-h (n=5) and 4-h (n=3) incubations with partially purified azurocidin in a protease:substrate ratio of 1:3 500 for 2 h at 37 C. C,D: The rate of association (ks), the absolute value of the slope (dRU/dt versus RU) over the linear initial association phase (21-120 s), is shown for pIGFBP-1, intact (closed circles), and after incubation with partially purified azurocidin for 2 h at 37 C (open circles); and
(§2) Instrument and reagents (buffers, chemicals for activating and deactivated) were purchased from BIAcore (Uppsala, Sweden). IGF-I, IGF-II and des(1-3)IGF-I were immobilized on the sensor chip by amine coupling and deactivated with 0.1M ethanolamine. A reference flow cell was also prepared to correct for background and bulk refractive index contribution. After equilibration buffer to achieve a stable baseline, binding experiments was at 22 C in 2 separate experiments with the samples injected in random order. 40 μl of each sample was injected over the sensor surface at a rate of 10 μl/min (association period), followed by a 6 min wash with buffer (dissociation period). The sensor surface was regenerated with 20 μl of 100 mM HCl and washed for 6 min before the next sample. We used a 1:1 Langmuir binding interaction model for kinetic analysis using the BIAcore software and GraphPad Prism (GraphPad Software Inc, San Diego, Calif.).

IGF-I [1] = target: T1, IGF-I (Homo sapiens, UniProt P05019); conditions: liver-secreted phosphoprotein, after dephosphorylation; cited from earlier work
Target sequence in this assay (P05019 49-118): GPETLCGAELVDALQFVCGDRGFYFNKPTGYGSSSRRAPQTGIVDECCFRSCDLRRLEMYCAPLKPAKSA

IGF-I [2] = target: T1, IGF-I; assay: BIAcore analysis over IGF-I biosensor surface; type: binding; design: purchased Kabi Pharmacia (Sweden), donated; conditions: for kd (rate of dissociation, over 261-360 s) / ks (rate of association, over 21-120 s): mean ± SEM; for predicted maximum response for interaction with IGF-I: based on initial rate of association (21-120 s), proteolysed = 2-h time point
Method: as §1, §2
Target sequence in this assay (P05019 49-118 limits assumed): as the sequence (P05019 49-118) above

[3] = test system: primary human skeletal myotubes; assay: 2-Deoxyglucose transport (glucose uptake); type: cell-based; conditions: for effect on glucose uptake alone: absence of exogenous IGF-II, 80 ng/ml
Method: Primary human skeletal myotubes were incubated under serum-free conditions for 24 h. Glucose uptake was determined as described in the Methods. The results are the mean±SEM of four experiments using cells from different individuals each with 3 replicates; and are expressed as the percentage of uptake in the absence of IGF-II or IGFBP-1 for each. The effect of IGF-II is shown in the hatched bars. The effect of pIGFBP-1 on stimulation of glucose uptake by 10 ng/ml IGF-II was analyzed by 2-way ANOVA for each of the 20 ng/ml and 80 ng/ml concentrations; *, P<0.01, **, P<0.001, compared to no IGF-II; ††, P<0.001, compared to no IGFBP-1 or intact IGFBP-1.
Human skeletal muscle cells were isolated, with approval from the local Ethics Committee, from the muscle biopsies by trypsin digestion and were grown to confluent myoblasts and differentiated into myotubes as previously described in detail (Bouzakri et al, Diabetes, 52, 1319-1325, 2003). Muscle from 4 different subjects were individually minced before being incubated for 30 min in 5 ml of trypsin-EDTA (Invitrogen, Carlsbad, Calif.) at 37° C. under agitation. After being centrifuged (150 g), the pellet was rinsed several times in PBS. Cells were first preplated for 1 h to eliminate rapidly adherent fibroblasts. The remaining cells were then cultured in a growth medium composed of HAM F-10 supplemented with 20% fetal bovine serum (FBS; Invitrogen Stockholm, Sweden), and 1% antibiotics (Invitrogen Stockholm, Sweden). Cells were plated in 6 wells plates and cultured in growth medium at 37° C. until confluence. Differentiation into myotubes was induced by changing the medium to Dulbecco's modified Eagle's medium supplemented with 2% FBS, and 1% antibiotics.
2-Deoxyglucose transport: Glucose uptake was performed as previously described for primary human muscle cells (Bouzakri et al, Diabetologia, 47, 1314-1323, 2004). After 24-h serum starvation, myotubes were pre-incubated with or without IGF-II (10 ng/ml) and IGF-II+IGFBP-1 (intact or cleaved at 20 or 80 ng/ml) for 90 min. IGF-II and IGFBP-1 were mixed 30 min before the experiments. Cells were then washed four times with pre-warmed buffer (150 mmol/l NaCl, […] KCl, 1.2 mmol/l MgSO4, 1.2 mmol/l CaCL2, 2.5 mmol/l NaH2PO4, 10 mmol/l HEPES, pH 7.4) and glucose uptake was measured for 15 min using [3H]2-deoxyglucose (50 μmol/l, 14,800 Bq/well). Results were expressed as the percentage of glucose uptake in the absence of IGF-II or IGFBP-1.
(§3) Statistical analyses. The effect of IGF-II and IGFBP-1 in muscle cell culture was analyzed by two-way ANOVA. Where significant differences were observed, comparisons were made using the Tukey test. In the study using MCF-7 breast cancer cells the Wolcoxon Matched Pairs test was used. Statistical significance was set at P<0.05.

[4] = test system: MCF-7 human breast cancer cells; assay: 3H-Thymidine incorporation; type: cell-based
Method: Cell studies. MCF-7 human breast cancer cells were maintained in MEM alpha ribonucleic acid-free medium supplemented with 10% foetal bovine serum, 50 Unit/ml penicillin sodium, 50 μg/ml streptomycin sulfate and 2 mM L-glutamine at 37C in 5% CO2 humidified environment.
3H-Thymidine incorporation: Experiments were carried out in 48-well plates, at 70% confluence. After a 20-h incubation in serum-free medium supplemented with 0.1% BSA, the experimental conditions were added for a further 24 h, with ^3H-thymidine (1 μCi/ml) added for the last 4 h. Cells were then washed with ice-cold 0.9% NaCl three times and incubated with ice-cold 5% TCA for 15 min at 22 C. The fixed nucleotides were solubilized in 0.1M NaOH at 22 C and subjected to liquid scintillation counting.
as §3

des(1-3)IGF-I = target: T2, des(1-3)IGF-I (Homo sapiens, UniProt P05019); assay: BIAcore analysis over des(1-3)IGF-I biosensor surface; type: binding; conditions: 200 nM, 2-h and 4-h incubations with partially purified azurocidin
T2 construct: IGF-I, IGF-II and des(1-3)IGF-I were immobilized on the sensor chip by amine coupling; purchased GroPep (Adelaide, Australia)
T2 sequence (P05019 52-118): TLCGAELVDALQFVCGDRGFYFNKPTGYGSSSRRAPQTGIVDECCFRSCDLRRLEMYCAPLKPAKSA
Method: Recombinant pIGFBP-1 was analyzed across a des(1-3) IGF-I biosensor surfaces with a concentration range of 50, 100, 200, 400 nM, at a flow rate of 10 μl/min. The mean sensorgrams are shown for 400 nM IGFBP-1 (intact, n=3) and 200 nM IGFBP-1, intact (0 h, n=4) and after 2-h (n=5) and 4-h (n=3) incubations with partially purified azurocidin in a protease:substrate ratio of 1:3 500 for 2 h at 37 C.
as §2

azurocidin = target: T3, azurocidin (Homo sapiens, UniProt P20160); assay: Stability of IGFBP-1 fragments generated in the presence of azurocidin; type: biochemical
T3 construct: from tissue
T3 sequence (P20160 27-248): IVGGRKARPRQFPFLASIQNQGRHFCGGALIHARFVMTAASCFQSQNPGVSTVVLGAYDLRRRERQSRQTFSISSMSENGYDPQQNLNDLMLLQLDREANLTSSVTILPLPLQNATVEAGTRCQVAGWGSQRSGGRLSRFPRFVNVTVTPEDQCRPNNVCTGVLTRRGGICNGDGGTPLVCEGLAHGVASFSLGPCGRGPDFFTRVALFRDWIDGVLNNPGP

[5] = IGFBP-1 200 nM, proteolysis 0 h
[6] = IGFBP-1 400 nM, proteolysis 0 h
[7] = IGF-I surface, IGFBP-1 200 nM, proteolysis 0 h
[8] = IGF-I surface, IGFBP-1 400 nM, proteolysis 0 h
[9] = IGF-II 10 ng/ml + IGFBP-1 20 or 80 ng/ml
[10] = IGFBP-1 200 nM, proteolysis 2 h
[11] = IGFBP-1 200 nM, proteolysis 2 h by azurocidin
[12] = IGFBP-1 200 nM, proteolysis 4 h
[13] = IGFBP-1 200 nM, proteolysis 4 h by azurocidin
[14] = IGF-I surface, IGFBP-1 200 nM, proteolysis 2 h by azurocidin
[15] = IGF-I surface, IGFBP-1 200 nM, proteolysis 4 h by azurocidin

B1: intact pIGFBP-1: recombinant human phosphorylated IGFBP-1, intact (protein)
chain: APWQCAPCSAEKLALCPPVSASCSEVTRSAGCGCCPMCALPLGAACGVATARCARGLSCRALPGEQQPLHALTRGQGACVQESDASAPHAAEAGSPESPESTEITEEELLDNFHLMAPSEEDHSILWDAISTYDGSKALHVTNIKKWKEPCRIELYRVVESLAKAQETSGEEISKFYLPNCNKNGFYHSRQCETSMDGEAGLCWCVYPWNGKRIPGSPEIRGDPNCQIYFNVQN
kd (rate of dissociation, over 261-360 s) (IGF-II; [5]): 3.48 ± 0.40 ×10^−4 s^−1
ks (rate of association, over 21-120 s) (IGF-II; [5]): 4.47 ± 0.78 ×10^−3 s^−1
kd (rate of dissociation, over 261-360 s) (IGF-II; [6]): 3.37 ± 0.02 ×10^−4 s^−1
ks (rate of association, over 21-120 s) (IGF-II; [6]): 8.30 ± 0.13 ×10^−3 s^−1
reduction of affinity for IGF-I by dephosphorylation (IGF-I [1]): six fold
kd (rate of dissociation, over 261-360 s) (IGF-I [2]; [7]): 1.46 ± 0.19 ×10^−4 s^−1
ks (rate of association, over 21-120 s) (IGF-I [2]; [7]): 4.29 ± 0.46 ×10^−3 s^−1
kd (rate of dissociation, over 261-360 s) (IGF-I [2]; [8]): 1.45 ± 0.02 ×10^−4 s^−1
ks (rate of association, over 21-120 s) (IGF-I [2]; [8]): 8.21 ± 0.14 ×10^−3 s^−1
predicted maximum response for interaction with IGF-I (IGF-I [2]): 908±79 RU
effect on IGF-II-stimulated glucose uptake [3, 9]: inhibited in a dose-response manner
effect on glucose uptake alone [3]: no effect
inhibition of 3H-thymidine incorporation by pIGFBP-1 alone ([4]; without IGF-II, 4 experiments): 13-33%

B2: proteolysed IGFBP-1: phosphorylated IGFBP-1 after incubation with partially purified azurocidin (mixture of N- and C-terminal fragments) (protein)
chain 1: APWQCAPCSAEKLALCPPVSASCSEVTRSAGCGCCPMCALPLGAACGVATARCARGLSCRALPGEQQPLHALTRGQGACVQESDASAPHAAEAGSPESPESTEITEEELLDNFHLMAPSEEDHSILWDAI
chain 2: STYDGSKALHVTNIKKWKEPCRIELYRVVESLAKAQETSGEEISKFYLPNCNKNGFYHSRQCETSMDGEAGLCWCVYPWNGKRIPGSPEIRGDPNCQIYFNVQN
kd rel to IGF-I (IGF-II; [10]): 2.51^‡
ks rel to IGF-I (IGF-II; [10]): 0.89
kd (rate of dissociation, over 261-360 s) (IGF-II; [11]): 15.99 ± 0.19 ×10^−4 s^−1
ks (rate of association, over 21-120 s) (IGF-II; [11]): 15.43 ± 0.58 ×10^−3 s^−1
kd rel to IGF-I (IGF-II; [12]): 2.39^‡
ks rel to IGF-I (IGF-II; [12]): 1.01
rel ks (relative to 200 nM intact pIGFBP-1) (IGF-II; [12]): 2.86*^†
kd (rate of dissociation, over 261-360 s) (IGF-II; [13]): 27.17 ± 0.12 ×10^−4 s^−1
ks (rate of association, over 21-120 s) (IGF-II; [13]): 12.80 ± 0.08 ×10^−3 s^−1
kd (rate of dissociation, over 261-360 s) (IGF-I [2]; [14]): 6.40 ± 0.25 ×10^−4 s^−1
ks (rate of association, over 21-120 s) (IGF-I [2]; [14]): 17.26 ± 0.49 ×10^−3 s^−1
rel ks (relative to 200 nM intact pIGFBP-1) (IGF-I [2]; IGF-I surface, IGFBP-1 200 nM, proteolysis 4 h): 2.96*^†
kd (rate of dissociation, over 261-360 s) (IGF-I [2]; [15]): 11.36 ± 0.05 ×10^−4 s^−1
ks (rate of association, over 21-120 s) (IGF-I [2]; [15]): 12.69 ± 0.08 ×10^−3 s^−1
predicted maximum response for interaction with IGF-I (IGF-I [2]): 1156±16 RU
effect of proteolysis on rate of dissociation from des(1-3)IGF-I (des(1-3)IGF-I): clearly increase
effect on IGF-II-stimulated glucose uptake [3, 9]: inhibited in a dose-response manner
inhibitory effect on IGF-II-stimulated glucose uptake compared with intact IGFBP-1 ([3]; IGF-II 10 ng/ml + IGFBP-1 20 or 80 ng/ml, P<0.001): significantly less
effect on glucose uptake alone [3]: stimulated glucose uptake
IGF-II-stimulated 3H-thymidine incorporation after addition of IGFBP-1 ([4]; IGF-II 10 ng/ml + pIGFBP-1 90 ng/ml, 6 experiments): no inhibition
further degradation of IGFBP-1 fragments (azurocidin; 2-h incubation at 45 C): no further degradation
further degradation of IGFBP-1 fragments (azurocidin; 24-h incubation at 37 C): no further degradation
